In this assay the target is T1, AvrB (WT), C-terminal 6xHis tag (P. syringae, UniProt P13835 1-321).
T1 construct: AvrB, type III secretion system effector of Pseudomonas syringae; cDNA in pET-29b; source: E. coli BL21 (DE3), purified (Ni2+-NTA)
Nature of the assay: pull-down; GST-tagged bait (10 μg) and prey (10 μg) with 10 μl glutathione agarose resin in 500 μl of 25 mM Hepes pH 7.4, 150 mM NaCl, 1 mM DTT, 0.1% Triton X-100, 5 mg BSA for blocking; 4°C, 30 min; three washes; SDS-PAGE, Coomassie staining. The note with it: both partners purified.

B1: GST-RIN4 T166A (natural protein)
chain: MARSNVPKFGNWEAEENVPYTAYFDKARKTRAPGSKIMNPNDPEYNSDSQSQAPPHPPSSRTKPEQVDTVRRSREHMRSREESELKQFGDAGGSSNEAANKRQGRASQNNSYDNKSPLHKNSYDGTGKSRPKPTNLRADESPEKVTVVPKFGDWDENNPSSADGYAHIFNKVREERSSGANVSGSSRTPTHQSSRNPNNTSSCCCFGFGGK
notes: source: E. coli BL21 (DE3), purified (Ni2+-NTA)
Take B1: the binding result is given as “binds”.

B2: GST-RIN4 T166E (natural protein)
chain: MARSNVPKFGNWEAEENVPYTAYFDKARKTRAPGSKIMNPNDPEYNSDSQSQAPPHPPSSRTKPEQVDTVRRSREHMRSREESELKQFGDAGGSSNEAANKRQGRASQNNSYDNKSPLHKNSYDGTGKSRPKPTNLRADESPEKVTVVPKFGDWDENNPSSADGYEHIFNKVREERSSGANVSGSSRTPTHQSSRNPNNTSSCCCFGFGGK
notes: as for B1
B2: the binding result was “binds”.
